In patent US20170166631A1 (published 2017) one finds EC50 data, which are given here for eleven molecules.

Where only a bound is given, the exact number is not on record here.

Sequences and labels used below:
B1: NI-302.8F1 (antibody, V domains shown)
VH: EVQLVESGGGLVKPGGSLTISCAASGFTFSNAWMNWVRQAPGKGLEWVGHIRTQAEGGTSDYAAPVKGRFTISRDDSKNTLYLQMNSLKTEDTAVYYCIPPPYYYYYGLDVWGQGTTVTVSS
VL: QSALTQPASVSGSPGQSITISCTGASSDVGTYDLVSWYQQHPGKAPKLIIYEVNKRPSGVSYRFSASKSANTASLTISGLQAEDEAEYYCCSYAGYSTVFGGGTKLTVL
B2: NI-302.18A1 (antibody, V domains shown)
VH: QLQLQESGPGLVKPSEALSLTCTVSGGSITTDYYYWGWIRQSPGKGLEWVGTIYFGGATYYNPSLRNRVSISVDTSNTRLSLRLISLSAADTAVYYCARVGYLDRSGLLVGQGTLVTVSS
VL: EIVLTQSPLSVPVTPGEPASISCRSSQSLLHNNGYNYLDWYLKKPGQSPQLLIYLGSTRASGVPDRFSASGSGTDFTLEISRVEAEDVGVYYCMQALQTPPTFGRGTKVEIK
B3: NI-302.52C9 (antibody, V domains shown)
VH: EVQLVQSGGGLVQPGGSLRLSCAGSGFTVSDTYMSWVRQAPGKGLEWVSGIHAGGETYYADSVKGRFTISRDNSKNTLYLQMNRLTPEDTAVFYCARHYYGNDDDTDYWGQGTLVTVSS
VL: DVVMTQSPLSLPVTPGEPASISCRSSQSLLHSNGYNYLDWYVQKPGQSPQLLIYLGSTRASGVPDRFSGSGSGTDFTLKISRVEAEDVGVYYCLQAQQIPWTFGQGTKVEIK
B4: NI-302.6N9 (antibody, V domains shown)
VH: EVQLVESGGDLVQPGGSLRLSCVVSGFTFSSYAMTWVRQAPGKGLAWVSTISATGGSTFYTDSVRGRFTISRDNSKNTLYLQMNSLRTDDTAIYYCVKDLFGVDTSYYGMDVWGQGTTVTVSS
VL: EIVLTQSPGTLSLSPGERATLSCRPSQSVSGRYVAWYQQKPGQAPRLLFYAASNRAIGIPDRFSGSGSGTDFTLTISRLEPEDFAVYYCQHYGASSYTFGPGTKVDIK
B5: NI-302.74C11 (antibody, V domains shown)
VH: EVQLVQSGTEVQKPGASVKVSCKASGYSFTGYFLHWVRQAPGQGLEWMGWINPNSGDTNYAEKFRGRIIMTRDTSVSTAHMELSSLRFDDTALYYCTREAPDPGAETDVWGQGTTVTVSS
VL: QSVLTQPPSVSVSPGQTARITCSGDAVPKQYIYWYQQKPGQAPILVIYKDTQRPSGIPERFSGSNSGTTVTLTITGVQADDEGDYYCQSADSSATWVFGGGTKLTVL
B6: NI-302.31F11 (antibody, V domains shown)
VH: EVQLVESGGGLIQPGGSLRLSCAASGFTVSSTYMSWVRQAPGKGLECVSVIFSGADTYYADSVKGRFTVSRDNSKNTLFLQMNSLRVEDTATYYCVRHYYGSDLPSDFWGQGTLVTVSS
VL: DVVMTQSPLSLPVAPGEPASISCRSSQSLLYSNGYNYLDWYLQKPGKPPQLLVYLGSDRASGVPDRFSGSGSGKDFTLNISRVEAEDVGVYYCMQGLQSPWTFGQGTKLEIK
B7: NI-302.15F9 (antibody, V domains shown)
VH: EVQLVESGGGLVTPGGSLRLSCEASGFLFKNSSMNWVRQTPGKGLEWVSSIDTSATNYKYYADSVKGRFTISRDDATNSLYLQMNSLRADDTATYYCARGYYTPRDFDYWGQGTLVTVSS
VL: DVVMTQSPQTLSVSLGQAASISCRSSQSLLYRDNNTYLNWFHQRPGQSPRRLIYRASDRDSGVPDRFSGGGSGTDFTLKISGVEAEDVGTYYCMQGTHWPRTFGQGTKVEIK
B8: NI-302.7D8 (antibody, V domains shown)
VH: QVQLVQSGSELKKPGASVKVSCKASGYNFNNYAINWLRQAPGQGLEWMGWINTITGHPTYAQGFKGRFVFSLDTSVSTAYLQISSLKPEDTAVYYCARTYSNYGEFDYWGQGTLVTVSS
VL: QSALTQPASVSGSRGQSITISCTGTSSDVGSYNLVSWYQQYPGKAPKLIIHEGSERPSGVSNRFSGSKSGNTASLTISGLQAEDEADYYCCSYAGTTTFVLFGGGTKLTVL
B9: NI-302.4A6 (antibody, V domains shown)
VH: EVQLVESGGGLVQPGGSLRLSCAASGFTFSAYAMSWVRQAPGKGLEWVSTISGSGGSTYYADSVKGRFSISRDNSKNTLYLQMNSLRAEDTAVYFCAKVTTELYGANSYYYYMDVWGKGTTVTVSS
VL: EIVLTQSPGTLSLSPGERATLSCRASQSVVSRYLAWYQQKPGQAPRLLIYGASSRATGIPDRFSGSGSGTDFTLTISRLEPEDFAMYYCQLYGNSQTFGQGTKVEIK
B10: NI-302.12H2 (antibody, V domains shown)
VH: EVQLVQSGGGLVQPGGSLRLSCEASGFTFSNYAMGWVRQAPGKGLEWVSVISGTGGSTYYADSVKGRFTISRDNSMNTLYLQMNSPRADDTAVYYCAKDLRKISGPLYYYGMDVWGQGTTVTVSS
VL: EIVLTQSPGTLSLSPGERATLSCRASQSVSSGYLAWYQQKPGQAPRLLIYGASTRATGIPDRFSGSGSGTDFTLTISRLEPEDFAVYYCQHYGASSYTFGQGTKLEIK
B11: NI-302.8M1 (antibody, V domains shown)
VH: EVQLVQSGAEVKKPGASVKVSCKASGYTFTIYYMHWVRQAPGQGLEWMGGISPSGAHTMYAQNFQGRVTVTRDTSTSTVYMELSSLRSEDTAVYYCARGSTVTNYRPFDYWGQGTLVTVSS
VL: DIQMTQSPSSLSASVGDRVTITCRASQDISNYLAWYQQKPGKVPKLLIFAASTLQSGVPSRFGGSGSGTDFTLTISSLQPEDVATYYCQNYNSGPPPFGPGTKVDIK

One assay addresses T1, HD21 (huntingtin exon 1 protein with 21 polyQ repeats after cleavage of the GST tag; aggregation reaction) (human, UniProt P42858 1-88).
T1 chain: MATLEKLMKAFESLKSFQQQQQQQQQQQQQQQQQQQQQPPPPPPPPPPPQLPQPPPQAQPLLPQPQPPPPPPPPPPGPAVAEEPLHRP
Put plainly: ELISA. (In an ELISA, binding on a coated surface is turned into a signal by an enzyme label.)
As a reminder, the EC50 is the midpoint of the concentration-response curve. In the case of B1, it took 1.6 nM to reach a half-maximal effect (EC50).

B2 showed an EC50 of 0.02 nM.

On to B3, for which the EC50 stood at 28 nM.

The target of a further assay is T2, GST-HttExon1Q21 (recombinant huntingtin exon 1 protein with 21 polyQ repeats fused to an N-terminal GST tag) (;human, UniProt P08515 1-218 = GST; P42858 1-88). Put plainly: ELISA.
Target sequence in this assay (P08515 1-218, tags or fused parts left off): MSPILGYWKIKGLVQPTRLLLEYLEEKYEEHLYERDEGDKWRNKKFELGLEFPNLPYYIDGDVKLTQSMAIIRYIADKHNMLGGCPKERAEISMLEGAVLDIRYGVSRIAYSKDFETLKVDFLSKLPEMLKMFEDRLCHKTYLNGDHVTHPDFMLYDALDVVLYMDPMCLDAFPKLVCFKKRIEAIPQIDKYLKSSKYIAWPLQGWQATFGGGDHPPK
B1: the EC50 was determined as 0.8 nM.

In the case of B2, the EC50 was found to be 0.04 nM.

B3: the EC50 is 10.2 nM.

Another assay addresses T3, HD49 (huntingtin exon 1 protein with 49 polyQ repeats after cleavage of the GST tag; aggregation reaction) (human, UniProt P42858 1-88).
T3 chain: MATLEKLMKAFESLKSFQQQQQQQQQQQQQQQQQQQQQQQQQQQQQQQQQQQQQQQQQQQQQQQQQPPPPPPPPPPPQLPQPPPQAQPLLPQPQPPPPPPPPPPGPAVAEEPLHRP
Put plainly: ELISA.
In the case of B1, it took 1.9 nM to reach a half-maximal effect (EC50).

Take B2: the midpoint of the response, the EC50, lay at 0.03 nM.

Take B3: a half-maximal response (EC50) required 30 nM.

The next assay concerns the target T1, HD21 (huntingtin exon 1 protein with 21 …). Put plainly: ELISA. The source holds these as a separate data set.
B4 returned an EC50 of 0.21 nM.

As for B5, it took 0.5 nM to reach a half-maximal effect (EC50).

B6 displayed an EC50 of 4.3 nM.

Another assay deals with T2, GST-HttExon1Q21 (recombinant huntingtin …). Nature of the assay: ELISA. The source holds these as a separate data set.
As to B4, the EC50 amounted to 0.24 nM.

On to B5, for which the EC50 turned out to be 0.5 nM.

For B6, the EC50 stood at 0.9 nM.

For the next assay, the target named is T3, HD49 (huntingtin exon 1 protein with 49 …). Nature of the assay: ELISA. The source holds these as a separate data set.
Molecule B4 came in with an EC50 of 0.19 nM.

The molecule B5 came in with an EC50 of 0.5 nM.

B6: the response was half-maximal at 0.6 nM (EC50).

The target in a further assay is T1, HD21 (huntingtin exon 1 protein with 21 …). Nature of the assay: ELISA. The source holds these as a separate data set.
B7: a half-maximal effect (EC50) was put at 35 nM.

On to B8, for which the EC50 was greater than 100 nM.

The molecule B4 yielded an EC50 of 0.21 nM.

In turn, B5 had a concentration for a half-maximal effect (EC50) of 0.5 nM.

In the case of B6, a half-maximal response (EC50) required 4.3 nM.

For another assay, the target named is T2, GST-HttExon1Q21 (recombinant huntingtin …). Nature of the assay: ELISA. The source holds these as a separate data set.
Target sequence in this assay (P08515 1-218, tags or fused parts left off): as the sequence (P08515 1-218, tags or fused parts left off) above
As for B7, the EC50 is 11 nM.

B9: the EC50 turned out to be 3 nM.

Turning to B8, the EC50 is 51 nM.

As to B10, the EC50 amounted to 0.04 nM.

As to B4, the EC50 was 0.24 nM.

Consider B5, for which the EC50 worked out at 0.5 nM.

With B11, the EC50 worked out at 0.002 nM.

In the case of B6, the EC50 was found to be 0.9 nM.

A further assay concerns the target T4, BSA-coupled synthetic peptide of the P-rich domain sequence of huntingtin exon 1 (coupled to BSA).
T4 peptide: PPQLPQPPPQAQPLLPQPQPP
Nature of the assay: ELISA.
The molecule B6 registered an EC50 of 0.5 nM.

In a further assay the target is T3, HD49 (huntingtin exon 1 protein with 49 …). Put plainly: ELISA. This is another data set of the same source.
For the molecule B7, the midpoint of the response, the EC50, lay at 6 nM.

The molecule B9 yielded an EC50 of 3 nM.

For the molecule B10, the EC50 was 0.04 nM.

In turn, B4 yielded an EC50 of 0.19 nM.

Turning to B5, the response was half-maximal at 0.5 nM (EC50).

B11 showed an EC50 of 0.003 nM.

B6 showed an EC50 of 0.6 nM.

Another assay addresses T2, GST-HttExon1Q21 (recombinant huntingtin …). Nature of the assay: ELISA. This is another data set of the same source.
B9: the EC50 was determined as 3 nM.

Take B10: the EC50 was determined as 0.04 nM.

Regarding B11, the concentration giving a half-maximal response (EC50) turned out to be 0.002 nM.

The target in another assay is T3, HD49 (huntingtin exon 1 protein with 49 …). Nature of the assay: ELISA. This is another data set of the same source.
As for B9, the response was half-maximal at 3 nM (EC50).

Molecule B10 registered an EC50 of 0.04 nM.

With B11, a half-maximal response (EC50) required 0.003 nM.

Another assay concerns the target T1, HD21 (huntingtin exon 1 protein with 21 …). Nature of the assay: ELISA. This is another data set of the same source.
For the molecule B8, the EC50 was greater than 100 nM.

The target in the next assay is T2, GST-HttExon1Q21 (recombinant huntingtin …). Put plainly: ELISA. The source holds these as a separate data set.
For B8, the EC50 turned out to be 51 nM.
